How the values were obtained:
[1] = test system: human EPO; assay: Example 43 multi-dose/multi-administration IM, serum human EPO; format: in vivo, Sprague-Dawley rats; conditions: rat serum 13 h post I.M.
Method: The dosing vehicle (F. buffer) was used as a control.
Animals (n=5), Sprague-Dawley rats, were injected IM (intramuscular) for the single unit dose of 100 ug (delivered to one thigh). For multi-dosing 6 doses of 100 ug (delivered to two thighs) were used for both EPO and G-CSF mmRNA. Control dosing involved use of buffer at a single dose. Human EPO blood levels were evaluated 13 hrs post injection.
Human EPO protein was measured in rat serum 13 h post I.M. Five groups of rats were treated and evaluated.

[2] = test system: human EPO; assay: Example 48 split dose study IM, serum human EPO, product per unit drug and dose splitting factor; format: in vivo, mice; conditions: for Avg. pmol/mL human EPO: serum 13 h
Method: The dosing vehicle (F. buffer) consisted of 150 mM NaCl, 2 mM CaCl2, 2 mM Nat phosphate (1.4 mM monobasic sodium phosphate; 0.6 mM dibasic sodium phosphate), and 0.5 mM EDTA, pH 6.5. The pH was adjusted using sodium hydroxide and the final solution was filter sterilized.
Animals (n=5) were injected IM (intramuscular) for the single unit dose of 100 ug. For multi-dosing, two schedules were used, 3 doses of 100 ug and 6 doses of 100 ug. For the split dosing scheme, two schedules were used, 3 doses at 33.3 ug and 6 doses of 16.5 ug mmRNA. Control dosing involved use of buffer only at 6 doses. […] Blood and muscle tissue were evaluated 13 hrs post injection.
Human EPO protein was measured in mouse serum 13 h post I.M. single, multi- or split dosing of the EPO mmRNA in buffer. Seven groups of mice (n=5 mice per group) were treated and evaluated.
The splitting factor is defined as the product per unit drug divided by the single dose product per unit drug (PUD). For example for treatment group 2 the value 0.28 or product (EPO) per unit drug (mmRNA) is divided by the single dose product per unit drug of 0.14. The result is 2. Likewise, for treatment group 4, the value 1.1 or product (EPO) per unit drug (mmRNA) is divided by the single dose product per unit drug of 0.14. The result is 7.9. Consequently, the dose splitting factor (DSF) may be used as an indicator of the efficacy of a split dose regimen. For any single administration of a total daily dose, the DSF should be equal to 1. Therefore any DSF greater than this value in a split dose regimen is an indication of increased efficacy.

[3] = test system: HEK293; assay: Example 46B percent-modified G-CSF mRNA transfected in HEK293, secreted G-CSF ELISA; format: cell-based, human; conditions: HEK293, 250 ng mRNA with RNAiMAX, supernatant after 16 hours
Method: Human embryonic kidney epithelial (HEK293) cells were seeded on 96-well plates at a density of 30,000 cells per well in 100 ul cell culture medium. 250 ng of modified G-CSF mRNA (SEQ ID NO: 6; polyA tail of approximately 160 nucleotides not shown in sequence; 5′cap, Cap1) formulated with RNAiMAX™ (Invitrogen, Carlsbad, Calif.) was added to a well. The G-CSF was completely modified with 5mC and pseudoU (100% modification), not modified with 5mC and pseudoU (0% modification) or was partially modified with 5mC and pseudoU so the mRNA would contain 75% modification, 50% modification or 25% modification. Control samples (AK 5/2, mCherry (SEQ ID NO: 7; polyA tail of approximately 160 nucleotides not shown in sequence; 5′cap, Cap1; fully modified 5mC and pseudoU) and untreated) were also analyzed. […] The supernatants were harvested after 16 hours and the secreted G-CSF protein was analyzed by ELISA.

[4] = test system: peripheral blood mononuclear cells (PBMC); assay: Modified RNA transfected in PBMC: IFN-alpha and TNF-alpha at 6 and 18 hours (ELISA); format: cell-based, human
Method: (§1) 500 ng of G-CSF mRNA modified with 5-methylcytosine (5mC) and pseudouridine (pseudoU) or unmodified G-CSF mRNA was transfected with 0.4 uL of Lipofectamine 2000 into peripheral blood mononuclear cells (PBMC) from three normal blood donors (D1, D2, and D3). […] The supernatant was harvested 6 hours and 18 hours after transfection and run by ELISA to determine the protein expression. The expression of G-CSF, IFN-alpha, and TNF-alpha for Donor 1 is shown in Table 86, Donor 2 is shown in Table 87 and Donor 3 is shown in Table 88.

[5] = test system: peripheral blood mononuclear cells (PBMC); assay: Modified RNA transfected in PBMC: G-CSF expression at 6 and 18 hours (ELISA); format: cell-based, human
Method: as §1

[6] = test system: peripheral blood mononuclear cells (PBMC); assay: IFN-alpha and TNF-alpha expression in transfected PBMC (ELISA) and PC ratio; format: cell-based, human; conditions: for IFN-alpha expression / TNF-alpha Expression: ELISA 22 hours after transfection
Method: The supernatant was harvested and run by ELISA 22 hours after transfection to determine the protein expression.

[7] = test system: peripheral blood mononuclear cells (PBMC); assay: G-CSF expression in PBMC transfected with partially modified G-CSF mRNA (ELISA); format: cell-based, human; conditions: for G-CSF Expression: ELISA 22 hours after transfection
Method: 480 ng of G-CSF mRNA modified with 5-methylcytosine (5mC) and pseudouridine (pseudoU) or unmodified G-CSF mRNA was transfected with 0.4 uL of Lipofectamine 2000 into peripheral blood mononuclear cells (PBMC) from three normal blood donors (D1, D2, and D3). […] The supernatant was harvested and run by ELISA 22 hours after transfection to determine the protein expression. The expression of IFN-alpha and TNF-alpha may be a secondary effect from the transfection of the G-CSF mRNA.

[8] = test system: peripheral blood mononuclear cells (PBMC); assay: Example 46A percent-modified G-CSF mRNA transfected in PBMC, G-CSF ELISA; format: cell-based, human
Method: 960 ng of G-CSF mRNA modified with 5-methylcytosine (5mC) and pseudouridine (pseudoU) or unmodified G-CSF mRNA was transfected with 0.8 uL of Lipofectamine 2000 into peripheral blood mononuclear cells (PBMC) from three normal blood donors (D1, D2, D3). […] The supernatant was harvested and run by ELISA 22 hours after transfection to determine the protein expression. The expression of IFN-alpha and TNF-alpha may be a secondary effect from the transfection of the G-CSF mRNA.

[9] = PBMC, from averages of Tables 83 and 84

B1: Human EPO mmRNA (nucleic acid, listed as Homo sapiens)
sense: GGGAAAUAAGAGAGAAAAGAAGAGUAAGAAGAAAUAUAAGAGCCACCAUGGGAGUGCACGAGUGUCCCGCGUGGUUGUGGUUGCUGCUGUCGCUCUUGAGCCUCCCACUGGGACUGCCUGUGCUGGGGGCACCACCCAGAUUGAUCUGCGACUCACGGGUACUUGAGAGGUACCUUCUUGAAGCCAAAGAAGCCGAAAACAUCACAACCGGAUGCGCCGAGCACUGCUCCCUCAAUGAGAACAUUACUGUACCGGAUACAAAGGUCAAUUUCUAUGCAUGGAAGAGAAUGGAAGUAGGACAGCAGGCCGUCGAAGUGUGGCAGGGGCUCGCGCUUUUGUCGGAGGCGGUGUUGCGGGGUCAGGCCCUCCUCGUCAACUCAUCACAGCCGUGGGAGCCCCUCCAACUUCAUGUCGAUAAAGCGGUGUCGGGGCUCCGCAGCUUGACGACGUUGCUUCGGGCUCUGGGCGCACAAAAGGAGGCUAUUUCGCCGCCUGACGCGGCCUCCGCGGCACCCCUCCGAACGAUCACCGCGGACACGUUUAGGAAGCUUUUUAGAGUGUACAGCAAUUUCCUCCGCGGAAAGCUGAAAUUGUAUACUGGUGAAGCGUGUAGGACAGGGGAUCGCUGAUAAGCUGCCUUCUGCGGGGCUUGCCUUCUGGCCAUGCCCUUCUUCUCUCCCUUGCACCUGUACCUCUUGGUCUUUGAAUAAAGCCUGAGUAGGAAG
modifications: 5' Cap1, polyA tail ~160 nt
Avg. human EPO ([1]; 1 × 100 ug, total dose 100 ug): 143 pg/mL
Avg. human EPO ([1]; 6 × 100 ug, total dose 600 ug): 256 pg/mL
Dose Splitting Factor ([2]; 1 × 100 ug, total 100 ug): 1
Polypeptide per unit drug ([2]; 1 × 100 ug, total 100 ug): 0.14 pmol/µg
Avg. pmol/mL human EPO ([2]; 1 × 100 ug, total 100 ug): 14.3 pmol/mL
Dose Splitting Factor ([2]; 3 × 33.3 ug, total 100 ug): 7.9
Polypeptide per unit drug ([2]; 3 × 33.3 ug, total 100 ug): 1.1 pmol/µg
Avg. pmol/mL human EPO ([2]; 3 × 33.3 ug, total 100 ug): 104.7 pmol/mL
Dose Splitting Factor ([2]; 3 × 100 ug, total 300 ug): 2
Polypeptide per unit drug ([2]; 3 × 100 ug, total 300 ug): 0.28 pmol/µg
Avg. pmol/mL human EPO ([2]; 3 × 100 ug, total 300 ug): 82.5 pmol/mL
Dose Splitting Factor ([2]; 6 × 16.5 ug, total 100 ug): 9.3
Polypeptide per unit drug ([2]; 6 × 16.5 ug, total 100 ug): 1.3 pmol/µg
Avg. pmol/mL human EPO ([2]; 6 × 16.5 ug, total 100 ug): 127.9 pmol/mL
Dose Splitting Factor ([2]; 6 × 100 ug, total 600 ug): 3.3
Polypeptide per unit drug ([2]; 6 × 100 ug, total 600 ug): 0.46 pmol/µg
Avg. pmol/mL human EPO ([2]; 6 × 100 ug, total 600 ug): 273.0 pmol/mL

B2: 100% modification: G-CSF mRNA (SEQ ID NO: 6, Cap1) completely modified with 5mC and pseudoU (nucleic acid, listed as Homo sapiens)
chain: GGGAAAUAAGAGAGAAAAGAAGAGUAAGAAGAAAUAUAAGAGCCACCAUGGCCGGUCCCGCGACCCAAAGCCCCAUGAAACUUAUGGCCCUGCAGUUGCUGCUUUGGCACUCGGCCCUCUGGACAGUCCAAGAAGCGACUCCUCUCGGACCUGCCUCAUCGUUGCCGCAGUCAUUCCUUUUGAAGUGUCUGGAGCAGGUGCGAAAGAUUCAGGGCGAUGGAGCCGCACUCCAAGAGAAGCUCUGCGCGACAUACAAACUUUGCCAUCCCGAGGAGCUCGUACUGCUCGGGCACAGCUUGGGGAUUCCCUGGGCUCCUCUCUCGUCCUGUCCGUCGCAGGCUUUGCAGUUGGCAGGGUGCCUUUCCCAGCUCCACUCCGGUUUGUUCUUGUAUCAGGGACUGCUGCAAGCCCUUGAGGGAAUCUCGCCAGAAUUGGGCCCGACGCUGGACACGUUGCAGCUCGACGUGGCGGAUUUCGCAACAACCAUCUGGCAGCAGAUGGAGGAACUGGGGAUGGCACCCGCGCUGCAGCCCACGCAGGGGGCAAUGCCGGCCUUUGCGUCCGCGUUUCAGCGCAGGGCGGGUGGAGUCCUCGUAGCGAGCCACCUUCAAUCAUUUUUGGAAGUCUCGUACCGGGUGCUGAGACAUCUUGCGCAGCCGUGAAGCGCUGCCUUCUGCGGGGCUUGCCUUCUGGCCAUGCCCUUCUUCUCUCCCUUGCACCUGUACCUCUUGGUCUUUGAAUAAAGCCUGAGUAGGAAG
modifications: Cap1; fully 5-methylcytidine and pseudouridine modified
G-CSF Expression [3]: 118.4 ng/mL
IFN-alpha ([4]; PBMC Donor 1, 6 hours): 1 pg/mL
TNF-alpha ([4]; PBMC Donor 1, 6 hours): 0 pg/mL
IFN-alpha ([4]; PBMC Donor 1, 18 hours): 13 pg/mL
TNF-alpha ([4]; PBMC Donor 1, 18 hours): 0 pg/mL
IFN-alpha ([4]; PBMC Donor 2, 6 hours): 0 pg/mL
TNF-alpha ([4]; PBMC Donor 2, 6 hours): 0 pg/mL
IFN-alpha ([4]; PBMC Donor 2, 18 hours): 7 pg/mL
TNF-alpha ([4]; PBMC Donor 2, 18 hours): 11 pg/mL
IFN-alpha ([4]; PBMC Donor 3, 6 hours): 7 pg/mL
TNF-alpha ([4]; PBMC Donor 3, 6 hours): 11 pg/mL
IFN-alpha ([4]; PBMC Donor 3, 18 hours): 658 pg/mL
TNF-alpha ([4]; PBMC Donor 3, 18 hours): 11 pg/mL
G-CSF ([5]; PBMC Donor 1, 500 ng mRNA, 6 hours): 1815 pg/mL
G-CSF ([5]; PBMC Donor 1, 18 hours): 2224 pg/mL
G-CSF ([5]; PBMC Donor 2, 6 hours): 2184 pg/mL
G-CSF ([5]; PBMC Donor 2, 18 hours): 2432 pg/mL
G-CSF ([5]; PBMC Donor 3, 6 hours): 6086 pg/mL
G-CSF ([5]; PBMC Donor 3, 18 hours): 7549 pg/mL
ratio of protein/cytokine production versus natural G-CSF mRNA, IFN-alpha ([6]; PBMC): 100 fold
ratio of protein/cytokine production versus natural G-CSF mRNA, TNF-alpha ([6]; PBMC): 27 fold
IFN-alpha expression ([6]; PBMC donor D1): 336.5 pg/mL
TNF-alpha Expression ([6]; PBMC donor D1): 115.0 pg/mL
IFN-alpha expression ([6]; PBMC donor D2): 78.0 pg/mL
TNF-alpha Expression ([6]; PBMC donor D2): 15.0 pg/mL
IFN-alpha expression ([6]; PBMC donor D3): 46.4 pg/mL
TNF-alpha Expression ([6]; PBMC donor D3): 11.1 pg/mL
G-CSF/IFN-alpha (PC ratio) [6, 9]: 16
G-CSF/TNF-alpha (PC ratio) [6, 9]: 52
Average IFN-a ([6]; average of PBMC donors D1-D3): 153 pg/mL
Average TNF-a ([6]; average of PBMC donors D1-D3): 47 pg/mL
G-CSF Expression ([7]; PBMC donor D1, 480 ng mRNA + Lipofectamine 2000): 1968.9 pg/mL
G-CSF Expression ([7]; PBMC donor D2, 480 ng mRNA): 2595.6 pg/mL
G-CSF Expression ([7]; PBMC donor D3, 480 ng mRNA): 2835.7 pg/mL
Average G-CSF ([7]; average of PBMC donors D1-D3): 2466 pg/mL
G-CSF Expression ([8]; PBMC donor D1, 960 ng mRNA): 270.3 pg/mL
G-CSF Expression ([8]; PBMC donor D2, 960 ng mRNA): 151.6 pg/mL
G-CSF Expression ([8]; PBMC donor D3, 960 ng mRNA): 162.2 pg/mL
